According to paper PMC9065035, “Structural basis for the synthesis of the core 1 structure by C1GalT1” (Nature Communications, 2022):

Experiments:
[1] = molecular target: DmC1GalT1^T43-Q388 (Drosophila melanogaster C1GalT1, residues T43-Q388) (Drosophila melanogaster); experiment: ITC; under an excess of UDP: 2 mM (glyco)peptide titrated into DmC1GalT1^T43-Q388 (60 µM for APDT*RP and APDTRP, 50 µM for P4/P7); 20 °C; 25 mM TRIS pH 7.5, 150 mM NaCl, 1 mM UDP, 1 mM MnCl2; one-site model; duplicate
[2] = molecular target: Drosophila melanogaster C1GalT1, residues T43-Q388 (DmC1GalT1^T43-Q388) (Drosophila melanogaster) (UniProt Q7K237); experiment: ITC; 2 mM glycopeptide titrated into the enzyme (60 uM for APDT*RP, 50 uM for P4/P7); excess of UDP: 25 mM TRIS pH 7.5, 150 mM NaCl, 1 mM UDP, 1 mM MnCl2; 20 °C; one-site model; duplicate
[3] = molecular target: DmC1GalT1^T43-Q388 (Drosophila melanogaster C1GalT1, residues T43-Q388) (Drosophila melanogaster) (UniProt Q7K237)
[4] = molecular target: DmC1GalT1^T43-Q388 (Drosophila melanogaster C1GalT1, residues T43-Q388) (Drosophila melanogaster) (UniProt Q7K237); experiment: ITC; with an excess of UDP: 2 mM (glyco)peptide titrated into 60 μM (APDT*RP, APDTRP) or 50 μM (P4/P7) enzyme; 25 mM TRIS pH 7.5, 150 mM NaCl, 1 mM UDP, 1 mM MnCl2; 20 °C; one-site model; low Wiseman c (c < 1)
[5] = test system: CC(=O)N[C@H]1[C@@H](O[C@H](C)[C@H](NC(=O)[C@H](CC(=O)O)NC(=O)[C@@H]2CCCN2C(=O)[C@H](C)N)C(=O)N[C@@H](CCCNC(=N)N)C(=O)N2CCC[C@H]2C(N)=O)O[C@H](CO)[C@H](O)[C@@H]1O; experiment: purified protein, by the assay type; details: 500 µM UDP-Gal, 37.0 °C
[6] = test system: CC(=O)N[C@H]1[C@@H](O[C@H](C)[C@H](NC(=O)[C@H](C)NC(=O)[C@H](C)NC(=O)[C@@H]2CCCN2)C(=O)NCC(=O)N2CCC[C@H]2C(=O)N[C@@H](Cc2ccc(O)cc2)C(N)=O)O[C@H](CO)[C@H](O)[C@@H]1O; experiment: purified protein, by the assay type; details: other: acceptor substrate varied (P1–P7 12.5–500 µM; APDT*RP/APDS*RP 12.5–1000 µM; α-O-methyl-GalNAc up to 2 mM), 500 µM UDP-Gal, 500 nM enzyme, 25 mM Tris pH 7.5, 150 mM NaCl, 50 µM MnCl2, 1 mg/ml BS, 37.0 °C
[7] = test system: CC(=O)N[C@H]1[C@@H](O[C@H](C)[C@H](NC(=O)[C@H](CC(=O)O)NC(=O)[C@H](C)NC(=O)[C@@H](N)Cc2ccc(O)cc2)C(=O)NCC(=O)N2CCC[C@H]2C(=O)N[C@@H](Cc2ccccc2)C(N)=O)O[C@H](CO)[C@H](O)[C@@H]1O; experiment: purified protein, by the assay type; details: other: acceptor substrate varied (P1–P7 12.5–500 µM; APDT*RP/APDS*RP 12.5–1000 µM; α-O-methyl-GalNAc up to 2 mM), 500 µM UDP-Gal, 500 nM enzyme, 25 mM Tris pH 7.5, 150 mM NaCl, 50 µM MnCl2, 1 mg/ml BS, 37.0 °C
[8] = other: acceptor substrate varied (P1–P7 12.5–500 µM; APDT*RP/APDS*RP 12.5–1000 µM; α-O-methyl-GalNAc up to 2 mM), 500 nM enzyme, 25 mM Tris pH 7.5, 150 mM NaCl, 50 µM MnCl2, 1 mg/ml BS

APDT*RP glycopeptide (* = GalNAc on the Thr)
Kd [1]: 174 µM
stoichiometry N [1]: 0.88

APDT*RP glycopeptide (GalNAc on Thr)
Kd [2]: 173 µM

APDT*RP glycopeptide (MUC1 tandem repeat epitope with alpha-GalNAc on Thr)
Km^app of the glycopeptide as acceptor substrate (UDP-Glo glycosylation kinetics, 500 nM enzyme, 500 μM UDP-Gal) [3]: 195 µM
fold by which UDP binds the enzyme more strongly than this peptide [4]: 9.5 fold
stoichiometry N [4]: 1

DmC1GalT1^S73-Q388 (Drosophila melanogaster)
Km ([5]; other: construct S73-Q388 (Hi5 cells), APDT*RP varied 12.5 µM–1 mM, fit ± standard error, n = 2, pH 7.5): 322.6 µM

DmC1GalT1^T43-Q388 (Drosophila melanogaster)
Km [6]: 50.06 µM
Km [5, 8]: 195 µM
kcat [5, 8]: 0.0583 s⁻¹
Km [7]: 139.6 µM
